From publication PMC5909925 (Molecular Biology of the Cell, 2018)
Changes are numbered by the printed parent chain.

Experiments:
[1] = target: T1, full-length mouse His6-αE-catenin (WT) (mouse, UniProt P26231 1-906); experiment: BLI
T1 sequence (looked up): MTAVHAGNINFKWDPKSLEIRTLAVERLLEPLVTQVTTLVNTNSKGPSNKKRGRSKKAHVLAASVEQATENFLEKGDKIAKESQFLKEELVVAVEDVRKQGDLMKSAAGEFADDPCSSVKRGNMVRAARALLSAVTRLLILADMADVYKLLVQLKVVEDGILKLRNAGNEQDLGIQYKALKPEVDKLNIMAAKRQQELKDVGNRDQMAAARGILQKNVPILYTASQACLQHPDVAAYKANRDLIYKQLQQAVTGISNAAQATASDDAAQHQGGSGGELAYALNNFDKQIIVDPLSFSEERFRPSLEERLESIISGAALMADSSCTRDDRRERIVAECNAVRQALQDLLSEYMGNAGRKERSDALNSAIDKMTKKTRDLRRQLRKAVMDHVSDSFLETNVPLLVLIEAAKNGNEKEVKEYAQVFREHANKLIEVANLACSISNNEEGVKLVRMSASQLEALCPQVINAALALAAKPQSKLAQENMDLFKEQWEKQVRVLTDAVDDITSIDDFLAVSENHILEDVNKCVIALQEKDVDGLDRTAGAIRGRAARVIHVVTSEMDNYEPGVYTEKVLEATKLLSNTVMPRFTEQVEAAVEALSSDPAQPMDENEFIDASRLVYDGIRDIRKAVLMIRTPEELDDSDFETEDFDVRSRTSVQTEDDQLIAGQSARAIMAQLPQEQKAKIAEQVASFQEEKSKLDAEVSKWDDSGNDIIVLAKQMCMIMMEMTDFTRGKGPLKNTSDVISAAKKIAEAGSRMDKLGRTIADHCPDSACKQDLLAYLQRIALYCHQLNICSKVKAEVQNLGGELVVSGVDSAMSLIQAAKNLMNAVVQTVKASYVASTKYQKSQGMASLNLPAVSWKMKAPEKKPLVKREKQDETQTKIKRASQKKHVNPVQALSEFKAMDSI

[2] = target: T2, full-length mouse His6-αE-catenin R551A (mouse, UniProt P26231 1-906, R551A); experiment: BLI
T2 sequence (looked up): T1 sequence (looked up) with R551A

B1: constitutively active vinculin head domain (VHD, residues 1-252) (domain or fragment, human, UniProt P18206 1-252, looked up)
chain: MPVFHTRTIESILEPVAQQISHLVIMHEEGEVDGKAIPDLTAPVAAVQAAVSNLVRVGKETVQTTEDQILKRDMPPAFIKVENACTKLVQAAQMLQSDPYSVPARDYLIDGSRGILSGTSDLLLTFDEAEVRKIIRVCKGILEYLTVAEVVETMEDLVTYTKNLGPGMTKMAKMIDERQQELTHQEHRVMLVNSMNTVKELLPVLISAMKIFVTTKNSKNQGIEEALKNRNFTVEKMSAEINEIIRVLQLTS
- Kd [1]: 1800 nM
- Kd [2]: 140 nM
